Patent US20240209076A1

Key:
[1] = target: VEGF-A165 (UniProt P15692); experiment: Biacore T200 SPR at 37 C, binder captured on Protein A chip, VEGF-A165 0.19 to 15 nM in five steps, 60 min dissociation, 1:1 Langmuir fit
[2] = target: VEGF (UniProt P15692); experiment: cell-based or functional assay
[3] = target: VEGF-A165 (UniProt P15692); experiment: SPR (Biacore T200), 37 C, binder captured on a Protein A chip, VEGF-A165 0.19 to 15 nM flowed over, 1:1 Langmuir fit
[4] = target: VEGF-A165 (UniProt P15692); experiment: Biacore SPR at 37 C, binder captured on Protein A chip, VEGF-A165 0.19 to 15 nM in five steps, 1:1 Langmuir fit

Eylea (Fc fusion), sequence (chain): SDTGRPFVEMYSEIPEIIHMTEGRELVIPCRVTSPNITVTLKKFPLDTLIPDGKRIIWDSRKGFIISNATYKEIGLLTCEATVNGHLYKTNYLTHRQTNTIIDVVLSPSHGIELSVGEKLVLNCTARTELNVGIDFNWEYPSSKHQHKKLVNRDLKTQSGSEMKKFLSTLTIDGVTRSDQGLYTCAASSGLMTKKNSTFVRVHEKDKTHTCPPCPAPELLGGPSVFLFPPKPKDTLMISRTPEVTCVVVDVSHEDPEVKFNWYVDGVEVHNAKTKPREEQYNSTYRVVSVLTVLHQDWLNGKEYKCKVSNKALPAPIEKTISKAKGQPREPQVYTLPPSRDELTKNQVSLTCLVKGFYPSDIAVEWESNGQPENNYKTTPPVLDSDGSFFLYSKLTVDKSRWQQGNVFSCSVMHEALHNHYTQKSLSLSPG
VEGF-A165, sequence (P15692 other isoform, or with tags, fused parts or gaps limits assumed): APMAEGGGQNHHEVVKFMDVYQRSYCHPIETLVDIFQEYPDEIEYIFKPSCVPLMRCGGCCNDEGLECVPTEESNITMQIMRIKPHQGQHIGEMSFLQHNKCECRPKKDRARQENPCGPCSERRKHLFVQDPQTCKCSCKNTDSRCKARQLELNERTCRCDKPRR
VEGF, sequence (P15692 other isoform, or with tags, fused parts or gaps limits assumed): as above

Substance: Eylea (Fc fusion)
- Kd [1]: 0.00535 nM
- cell based VEGF stimulated VEGFR reporter assay, average IC50 [2]: 0.35 nM
- Kd [3]: 0.00622 nM
- Kd [4]: 0.0157 nM
